Data on 5 substances can be found in patent US20080027145A1, “Therapeutic Molecules and Methods for Generating and/or Selecting Same” (priority 2004, published 2008).

pIC50, pKd: −log10 of the molar value.

Test [1] has as its target mouse Mcl-1 ΔN151 ΔC23 (mouse) (UniProt P97287). Description: from the solution competition affinities.
The target in a further test is mouse A1 ΔC20 (mouse) (UniProt Q07440). Description: Biacore solution competition against immobilised mouse wtBimBH3. A general note: SPR reads the build-up and loss of mass on a sensor chip optically.
The target of test [2] is mouse Mcl-1 ΔN151 ΔC23 (mouse) (UniProt P97287). The test is described as above.
Test [3] addresses m ^wtBimBH3 (83-108) (mouse). Description: SPR (Biacore 3000), protein over immobilised m wtBimBH3.

As a reminder, the pIC50 is the negative decadic logarithm of the IC50, by convention in mol/L. The low end stands for a large IC50, the high end for a small IC50. By pKd is commonly meant −log10 of the Kd, conventionally taken in molar units. A high value points to a low Kd. The koff is a measure of how fast the partners let go of each other. In general, kon refers to a measure of how fast the partners come together.

Sequence of mouse Mcl-1 ΔN151 ΔC23 (mouse) (P97287 other isoform, or with tags, fused parts or gaps mutant): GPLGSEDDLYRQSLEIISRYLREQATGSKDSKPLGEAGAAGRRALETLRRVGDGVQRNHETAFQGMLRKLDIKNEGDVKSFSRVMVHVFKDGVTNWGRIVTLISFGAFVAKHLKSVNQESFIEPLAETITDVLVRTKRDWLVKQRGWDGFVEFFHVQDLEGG
Sequence of mouse A1 ΔC20 (mouse) (Q07440 other isoform, or with tags, fused parts or gaps mutant): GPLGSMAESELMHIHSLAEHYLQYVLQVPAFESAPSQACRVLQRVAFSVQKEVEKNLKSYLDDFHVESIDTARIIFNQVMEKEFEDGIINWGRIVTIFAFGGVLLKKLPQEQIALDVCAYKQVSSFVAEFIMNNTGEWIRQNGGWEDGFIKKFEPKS
Sequence of m ^wtBimBH3 (83-108) (mouse) (peptide, as listed by the source limits assumed): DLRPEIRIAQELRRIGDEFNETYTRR

In turn, Bik (51-75) BH3 peptide, human had a fold weaker binding than to Bcl-xL in test [1] of 40 fold. Further, the pIC50 in the test with mouse A1 ΔC20 (mouse) was 7.24; in test [2], 5.77.
Regarding Hrk (26-51) BH3 peptide, human, the pIC50 with mouse A1 ΔC20 (mouse) was 7.34; in test [2], 6.43.
In test [3], “mouse Mcl-1 ΔN151 ΔC23 (from UniProt P97287 152-308)” had a pKd of 9.70, a koff of 0.00026 s⁻¹ and a kon of 1.3e+06 M⁻¹ s⁻¹.
In test [3], “mouse A1 ΔC20 (from UniProt Q07440 1-152)” gave a pKd of 9.30, a koff of 0.00014 s⁻¹ and a kon of 290000 M⁻¹ s⁻¹.
Take Puma (130-155) BH3 peptide, human: the pIC50 with mouse A1 ΔC20 (mouse) is 8.24; in test [2], 8.30.
